This data set concerns the molecule itself. Nature of the data set: rheology (elastic modulus G'), P11-4 at 15 mg/ml in different buffers, 37 C; homotypic self-assembly. The protocol: P11-4 was prepared at 15 mg/ml with different buffer compositions (see below) measured at 0.1% strain, 37° C. and a frequency of 1 rad/second. Self-assembly of peptide monomers to polymers takes more than 5 min independent of the used ionic strength at neutral pH.

No end group written: not given here.

As for QQRFEWEFEQQ (not fully specified; printed as Gln-Gln-Arg-Phe-Glu-Trp-Glu-Phe-Glu-Gln-Gln) [self-assembling peptide P11-4], the binding result is “binds”.

The record behind these values is US20190142724A1 (CREDENTIS, published 2019).
